Target: T1, CD46 (human, UniProt P15529)
Assay: cell-based or functional assay

Binder | titer [t.u./ml] of HIV-1 vector particles on 293T cells, concentrated supernatant [t.u./ml] | titer [t.u./ml] of HIV-1 vector particles on U-87MG cells, concentrated supernatant [t.u./ml]
HcΔ14 (other) MPHPKGSRIVINREHLMIDRPYVLLAVLFVMFLSLIGLLAIAGIRLHRAAIYTAEIHKSLSTNLDVTNSIEHQVKDVLTPLFKIIGDEVGLRTPQRFTDLVKFISDKIKFLNPDREYDFRDLTWCINPPERIKLDYDQYCADVAAEELMNALVNSTLLETRTTNQFLAVSKGNCSGPTTIRGQFSNMSLSLLDLYLGRGYNVSSIVTMTSQGMYGGTYLVEKPNLSSKRSELSQLSMYRVFEVGVIRNPGLGAPVFHMTNYLEQPVSNDLSNCMVALGELKLAALCHGEDSITIPYQGSGKGVSFQLVKLGVWKSPTDMQSWVPLSTDDPVIDRLYLSSHRGVIADNQAKWAVPTTRTDDKLRMETCFQQACKGKIQALCENPEWAPLKDNRIPSYGVLSVDLSLTVELKIKIASGFGPLITHGSGMDLYKSNHNNVYWLTIPPMKNLALGVINTLEWIPRFKVSPYLFTVPIKEAGGDCHAPTYLPAEVDGDVKLSSNLVILPGQDLQYVLATYDTSRVEHAVVYYVYSPSRSFSYFYPFRLPIKGVPIELQVECFTWDQKLWCRHFCVLADSESGGHITHSGMVGMGVSCTVTREDGTNRR | 2900 | 3420
HcΔ24+4A (other) MAAAANREHLMIDRPYVLLAVLFVMFLSLIGLLAIAGIRLHRAAIYTAEIHKSLSTNLDVTNSIEHQVKDVLTPLFKIIGDEVGLRTPQRFTDLVKFISDKIKFLNPDREYDFRDLTWCINPPERIKLDYDQYCADVAAEELMNALVNSTLLETRTTNQFLAVSKGNCSGPTTIRGQFSNMSLSLLDLYLGRGYNVSSIVTMTSQGMYGGTYLVEKPNLSSKRSELSQLSMYRVFEVGVIRNPGLGAPVFHMTNYLEQPVSNDLSNCMVALGELKLAALCHGEDSITIPYQGSGKGVSFQLVKLGVWKSPTDMQSWVPLSTDDPVIDRLYLSSHRGVIADNQAKWAVPTTRTDDKLRMETCFQQACKGKIQALCENPEWAPLKDNRIPSYGVLSVDLSLTVELKIKIASGFGPLITHGSGMDLYKSNHNNVYWLTIPPMKNLALGVINTLEWIPRFKVSPYLFTVPIKEAGGDCHAPTYLPAEVDGDVKLSSNLVILPGQDLQYVLATYDTSRVEHAVVYYVYSPSRSFSYFYPFRLPIKGVPIELQVECFTWDQKLWCRHFCVLADSESGGHITHSGMVGMGVSCTVTREDGTNRR | 1.6e+06 | ≥ 1e+06
HcΔ19 (other) MSRIVINREHLMIDRPYVLLAVLFVMFLSLIGLLAIAGIRLHRAAIYTAEIHKSLSTNLDVTNSIEHQVKDVLTPLFKIIGDEVGLRTPQRFTDLVKFISDKIKFLNPDREYDFRDLTWCINPPERIKLDYDQYCADVAAEELMNALVNSTLLETRTTNQFLAVSKGNCSGPTTIRGQFSNMSLSLLDLYLGRGYNVSSIVTMTSQGMYGGTYLVEKPNLSSKRSELSQLSMYRVFEVGVIRNPGLGAPVFHMTNYLEQPVSNDLSNCMVALGELKLAALCHGEDSITIPYQGSGKGVSFQLVKLGVWKSPTDMQSWVPLSTDDPVIDRLYLSSHRGVIADNQAKWAVPTTRTDDKLRMETCFQQACKGKIQALCENPEWAPLKDNRIPSYGVLSVDLSLTVELKIKIASGFGPLITHGSGMDLYKSNHNNVYWLTIPPMKNLALGVINTLEWIPRFKVSPYLFTVPIKEAGGDCHAPTYLPAEVDGDVKLSSNLVILPGQDLQYVLATYDTSRVEHAVVYYVYSPSRSFSYFYPFRLPIKGVPIELQVECFTWDQKLWCRHFCVLADSESGGHITHSGMVGMGVSCTVTREDGTNRR | 200000 | ≥ 1e+06
HcΔ18 (other) MGSRIVINREHLMIDRPYVLLAVLFVMFLSLIGLLAIAGIRLHRAAIYTAEIHKSLSTNLDVTNSIEHQVKDVLTPLFKIIGDEVGLRTPQRFTDLVKFISDKIKFLNPDREYDFRDLTWCINPPERIKLDYDQYCADVAAEELMNALVNSTLLETRTTNQFLAVSKGNCSGPTTIRGQFSNMSLSLLDLYLGRGYNVSSIVTMTSQGMYGGTYLVEKPNLSSKRSELSQLSMYRVFEVGVIRNPGLGAPVFHMTNYLEQPVSNDLSNCMVALGELKLAALCHGEDSITIPYQGSGKGVSFQLVKLGVWKSPTDMQSWVPLSTDDPVIDRLYLSSHRGVIADNQAKWAVPTTRTDDKLRMETCFQQACKGKIQALCENPEWAPLKDNRIPSYGVLSVDLSLTVELKIKIASGFGPLITHGSGMDLYKSNHNNVYWLTIPPMKNLALGVINTLEWIPRFKVSPYLFTVPIKEAGGDCHAPTYLPAEVDGDVKLSSNLVILPGQDLQYVLATYDTSRVEHAVVYYVYSPSRSFSYFYPFRLPIKGVPIELQVECFTWDQKLWCRHFCVLADSESGGHITHSGMVGMGVSCTVTREDGTNRR | 1e+06 | ≥ 1e+06

Target: human CD20 (human, UniProt P11836)
Assay: cell-based or functional assay

Binder | titer [t.u./ml] of HIV-1 vector particles on HT1080-CD20 cells, concentrated supernatant [t.u./ml]
HmutscFvCD20Δ19 (other) MSRIVINREHLMIDRPYVLLAVLFVMFLSLIGLLAIAGIRLHRAAIYTAEIHKSLSTNLDVTNSIEHQVKDVLTPLFKIIGDEVGLRTPQRFTDLVKFISDKIKFLNPDREYDFRDLTWCINPPERIKLDYDQYCADVAAEELMNALVNSTLLETRTTNQFLAVSKGNCSGPTTIRGQFSNMSLSLLDLYLGRGYNVSSIVTMTSQGMYGGTYLVEKPNLSSKRSELSQLSMYRVFEVGVIRNPGLGAPVFHMTNYLEQPVSNDLSNCMVALGELKLAALCHGEDSITIPYQGSGKGVSFQLVKLGVWKSPTDMQSWVPLSTDDPVIDRLYLSSHRGVIADNQAKWAVPTTRTDDKLRMETCFQQACKGKIQALCENPEWAPLKDNRIPSYGVLSVDLSLTVELKIKIASGFGPLITHGSGMDLYKSNHNNVYWLTIPPMKNLALGVINTLEWIPRFKVSPALFTVPIKEAGGDCHAPTYLPAEVDGDVKLSSNLVILPGQDLQYVLATYDTSAVEHAVVYYVYSPSRLSSYFYPFRLPIKGVPIELQVECFTWDQKLWCRHFCVLADSESGGHITHSGMVGMGVSCTVTREDGTNAAQPAIEGRMAQVQLVQSGAELVKPGASVKMSCKASGYTFTSYNMHWVKQTPGQGLEWIGAIYPGNGDTSYNQKFKGKATLTADKSSSTAYMQLSSLTSEDSAVYYCARAQLRPNYWYFDVWGAGTTVTVSKISGGGGSGGGGSGGGGSGGSSDIVLSQSPAILSASPGEKVTMTCRASSSVSYMHWYQQKPGSSPKPWIYATSNLASGVPARFSGSGSGTSYSLTISRVEAEDAATYYCQQWISNPPTFGAGTKLELKAAARGSHHHHHH | 1.32e+06

Target: T1, CD46
Assay: cell-based or functional assay
Remark: another data set of the same source

Binder | titer [t.u./ml] of HIV-1 vector particles on HT1080 cells, not concentrated supernatant [t.u./ml]
HcΔ21 (other) MIVINREHLMIDRPYVLLAVLFVMFLSLIGLLAIAGIRLHRAAIYTAEIHKSLSTNLDVTNSIEHQVKDVLTPLFKIIGDEVGLRTPQRFTDLVKFISDKIKFLNPDREYDFRDLTWCINPPERIKLDYDQYCADVAAEELMNALVNSTLLETRTTNQFLAVSKGNCSGPTTIRGQFSNMSLSLLDLYLGRGYNVSSIVTMTSQGMYGGTYLVEKPNLSSKRSELSQLSMYRVFEVGVIRNPGLGAPVFHMTNYLEQPVSNDLSNCMVALGELKLAALCHGEDSITIPYQGSGKGVSFQLVKLGVWKSPTDMQSWVPLSTDDPVIDRLYLSSHRGVIADNQAKWAVPTTRTDDKLRMETCFQQACKGKIQALCENPEWAPLKDNRIPSYGVLSVDLSLTVELKIKIASGFGPLITHGSGMDLYKSNHNNVYWLTIPPMKNLALGVINTLEWIPRFKVSPYLFTVPIKEAGGDCHAPTYLPAEVDGDVKLSSNLVILPGQDLQYVLATYDTSRVEHAVVYYVYSPSRSFSYFYPFRLPIKGVPIELQVECFTWDQKLWCRHFCVLADSESGGHITHSGMVGMGVSCTVTREDGTNRR | 1500
HcΔ23 (other) MINREHLMIDRPYVLLAVLFVMFLSLIGLLAIAGIRLHRAAIYTAEIHKSLSTNLDVTNSIEHQVKDVLTPLFKIIGDEVGLRTPQRFTDLVKFISDKIKFLNPDREYDFRDLTWCINPPERIKLDYDQYCADVAAEELMNALVNSTLLETRTTNQFLAVSKGNCSGPTTIRGQFSNMSLSLLDLYLGRGYNVSSIVTMTSQGMYGGTYLVEKPNLSSKRSELSQLSMYRVFEVGVIRNPGLGAPVFHMTNYLEQPVSNDLSNCMVALGELKLAALCHGEDSITIPYQGSGKGVSFQLVKLGVWKSPTDMQSWVPLSTDDPVIDRLYLSSHRGVIADNQAKWAVPTTRTDDKLRMETCFQQACKGKIQALCENPEWAPLKDNRIPSYGVLSVDLSLTVELKIKIASGFGPLITHGSGMDLYKSNHNNVYWLTIPPMKNLALGVINTLEWIPRFKVSPYLFTVPIKEAGGDCHAPTYLPAEVDGDVKLSSNLVILPGQDLQYVLATYDTSRVEHAVVYYVYSPSRSFSYFYPFRLPIKGVPIELQVECFTWDQKLWCRHFCVLADSESGGHITHSGMVGMGVSCTVTREDGTNRR | 130
HcΔ24 (other) MNREHLMIDRPYVLLAVLFVMFLSLIGLLAIAGIRLHRAAIYTAEIHKSLSTNLDVTNSIEHQVKDVLTPLFKIIGDEVGLRTPQRFTDLVKFISDKIKFLNPDREYDFRDLTWCINPPERIKLDYDQYCADVAAEELMNALVNSTLLETRTTNQFLAVSKGNCSGPTTIRGQFSNMSLSLLDLYLGRGYNVSSIVTMTSQGMYGGTYLVEKPNLSSKRSELSQLSMYRVFEVGVIRNPGLGAPVFHMTNYLEQPVSNDLSNCMVALGELKLAALCHGEDSITIPYQGSGKGVSFQLVKLGVWKSPTDMQSWVPLSTDDPVIDRLYLSSHRGVIADNQAKWAVPTTRTDDKLRMETCFQQACKGKIQALCENPEWAPLKDNRIPSYGVLSVDLSLTVELKIKIASGFGPLITHGSGMDLYKSNHNNVYWLTIPPMKNLALGVINTLEWIPRFKVSPYLFTVPIKEAGGDCHAPTYLPAEVDGDVKLSSNLVILPGQDLQYVLATYDTSRVEHAVVYYVYSPSRSFSYFYPFRLPIKGVPIELQVECFTWDQKLWCRHFCVLADSESGGHITHSGMVGMGVSCTVTREDGTNRR | 88
HcΔ22 (other) MVINREHLMIDRPYVLLAVLFVMFLSLIGLLAIAGIRLHRAAIYTAEIHKSLSTNLDVTNSIEHQVKDVLTPLFKIIGDEVGLRTPQRFTDLVKFISDKIKFLNPDREYDFRDLTWCINPPERIKLDYDQYCADVAAEELMNALVNSTLLETRTTNQFLAVSKGNCSGPTTIRGQFSNMSLSLLDLYLGRGYNVSSIVTMTSQGMYGGTYLVEKPNLSSKRSELSQLSMYRVFEVGVIRNPGLGAPVFHMTNYLEQPVSNDLSNCMVALGELKLAALCHGEDSITIPYQGSGKGVSFQLVKLGVWKSPTDMQSWVPLSTDDPVIDRLYLSSHRGVIADNQAKWAVPTTRTDDKLRMETCFQQACKGKIQALCENPEWAPLKDNRIPSYGVLSVDLSLTVELKIKIASGFGPLITHGSGMDLYKSNHNNVYWLTIPPMKNLALGVINTLEWIPRFKVSPYLFTVPIKEAGGDCHAPTYLPAEVDGDVKLSSNLVILPGQDLQYVLATYDTSRVEHAVVYYVYSPSRSFSYFYPFRLPIKGVPIELQVECFTWDQKLWCRHFCVLADSESGGHITHSGMVGMGVSCTVTREDGTNRR | 140

— US9862971B2 (BUNDESREPUBLIK DEUTSCHLAND, LETZTVERTRETEN DURCH DEN …, dated 2018)
